Reference: publication PMC11779939, “Identification of novel 7-hydroxycoumarin derivatives as ELOC binders with potential to modulate CRL2 complex formation” (Scientific Reports, 2025)
Non-standard residues stand in square brackets, D forms with d. No end group written: not given here. *: point of attachment. FITC = O=C1OC2(c3ccc(O)cc3Oc3cc(O)ccc32)c2ccc(NC(=S)*)cc21; Hyp = O=C(O)[C@@H]1C[C@@H](O)CN1

Target: VHL-ELOB-ELOC (VBC) complex (UniProt P40337 54-213; Q15370 1-104; Q15369 17-112)
Test: fluorescence polarisation; competitive FP for fragment screening, 384-well plates; 0.5 uM VBC, 20 nM FITC peptide, 10 mM HEPES pH 7.5, 0.0025% Tween 20, 50 mM NaCl, 1 mM EDTA, 1 mM DTT; small-molecule competitors (VH032 as reference)
Settings: both partners purified

binding result: binds
Binder: {FITC}-LEALA[Hyp]YIPA [FITC-LEALA-HyP-YIPA peptide]
